According to patent publication US10471162B2, “Collagen targeted imaging probes” (priority 2014, dated 2019):

Experiments:
Set-up in all cases: species or system mouse
[1] = tested on: pulmonary fibrosis, low dose bleomycin, vascular leak model; assay: in vivo; conditions: mouse
Procedure: (§1) Adult male C57Bl/6 mice were administered a single intratracheal dose of low dose bleomycin at 0.1 U/kg (low dose), in a total volume of 50 μl sterile saline. FTY720 was administered intraperitoneally to the mice at 1 mg/kg three times a week. To effect treatment in the low dose bleomycin, vascular leak model, the therapeutic murine antibody 3G9 (alpha-v-beta6 blocking antibody) and 1E6 (matched isotype control antibody) were used. Antibodies were injected into mice intraperitoneally three times week at a concentration of 1 mg/kg. All administrations of FTY720 and antibodies were initiated on day 0, ˜30 minutes before bleomycin challenge and continued throughout the duration of the experiments. […] The tissues were weighed, and radioactivity in each tissue was measured on a gamma counter (CobraII Auto gamma; Packard). The radioactivity in the lung was reported as percent injected dose per gram corrected with the average sham weight, which was calculated by dividing the counts of ^64Cu per average sham tissue weight in gram by the total of counts of the injected dose. The radioactivity in every other tissue was reported as percent injected dose per gram (% ID/g), which was calculated by dividing the counts of ^64Cu per gram of tissue by the total of counts of the injected dose. […] Uncertainties are expressed as the standard error of the mean.

in vivo [2] = conditions: male, C57Bl/6, mouse, iv, total radioactivity, Biodistribution % ID/lung
Procedure: as §1

in vivo [3] = conditions: male, C57Bl/6, mouse, iv, total radioactivity, Biodistribution % ID/g
Procedure: (§2) Adult male C57Bl/6 mice were administered a single intratracheal dose of low dose bleomycin at 0.1 U/kg (low dose), in a total volume of 50 μl sterile saline. FTY720 was administered intraperitoneally to the mice at 1 mg/kg three times a week. Animals were placed in a small-animal PET/SPECT/CT scanner (Triumph; TriFoil Imaging), equipped with inhalation anesthesia and heating pad. Each animal was anesthetized with isoflurane (4% for induction, 2-2.5% for maintenance in medical air) and body temperature was kept at 37-38° C. using a heating pad. The femoral vein was cannulated for intravenous delivery of the PET agent. Each mouse was injected with approximately 0.1 mL and 20-50 μCi of ^64Cu-CBP(n), 0.1 mL and 20-50 μCi of ^68Ga-CBP(n) and 0.1 mL and 10-20 μCi of Al^18F-CBP(n) in a 18 mM solution of sucrose in water, followed by saline flush. […] The lungs, blood, urine, heart, liver, left rectus femoris muscle, spleen, small intestine, kidneys, left femur bone were collected from all animals. The tissues were weighed, and radioactivity in each tissue was measured on a gamma counter (CobraII Auto gamma; Packard). The radioactivity in the lung was reported as percent injected dose per gram corrected with the average sham weight, which was calculated by dividing the counts of ^64Cu per average sham tissue weight in gram by the total of counts of the injected dose. The radioactivity in every other tissue was reported as percent injected dose per gram (% ID/g), which was calculated by dividing the counts of ^64Cu per gram of tissue by the total of counts of the injected dose. A p-value of less than 0.05 was considered significant. Uncertainties are expressed as the standard error of the mean.

[4] = tested on: pulmonary fibrosis, C57Bl/6 mice (low dose bleomycin, FTY720); assay: in vivo
Procedure: as §2

[5] = male, C57Bl/6, mouse, iv, 2.5 h

CC(C)C[C@H](NC(=O)[C@@H]1CSSC[C@H](NC(=O)[C@H](Cc2c[nH]cn2)NC(=O)[C@H](Cc2c[nH]c3ccccc23)NC(=O)[C@H](CCCCNC(=O)CNC(=O)CCC(C(=O)O)N2CCN(CC(=O)O)CCN(CC(=O)O)CC2)NC(=O)CNC(=O)CCC(C(=O)O)N2CCN(CC(=O)O)CCN(CC(=O)O)CC2)C(=O)N[C@@H]([C@@H](C)O)C(=O)N[C@@H]([C@@H](C)O)C(=O)N[C@@H](CCCCNC(=O)CCC(C(=O)O)N2CCN(CC(=O)O)CCN(CC(=O)O)CC2)C(=O)N[C@@H](Cc2ccccc2)C(=O)N2CCC[C@H]2C(=O)N[C@@H](Cc2c[nH]cn2)C(=O)N[C@@H](Cc2c[nH]cn2)C(=O)N[C@@H](Cc2ccc(O)cc2)C(=O)N1)C(=O)N[C@@H](Cc1ccc(O)cc1)C(=O)N[C@@H](Cc1ccc(-c2ccccc2)cc1)C(N)=O (single isomer, unassigned) [CBP8]
organ uptake between groups, except lungs, in words [1]: not significantly different
tissue uptake dose at 2.5 h (in vivo [2]): 0.043 ± 0.001 %ID
tissue uptake at 2.5 h (in vivo [3]; blood): 0.347 ± 0.017 %ID/g
tissue uptake at 2.5 h (in vivo [3]; heart): 0.293 ± 0.024 %ID/g
tissue uptake at 2.5 h (in vivo [3]; kidney): 42.7 ± 1.42 %ID/g
tissue uptake at 2.5 h (in vivo [3]; liver): 1.44 ± 0.108 %ID/g
tissue uptake at 2.5 h (in vivo [3]; small intest.): 0.477 ± 0.052 %ID/g
tissue uptake at 2.5 h (in vivo [3]; spleen): 0.47 ± 0.045 %ID/g
Biodistribution % ID/g, blood [4, 5]: 0.523 ± 0.062 % ID/g
Biodistribution % ID/g, heart [4, 5]: 0.340 ± 0.038 % ID/g
Biodistribution % ID/g, kidney [4, 5]: 50.36 ± 2.756 % ID/g
Biodistribution % ID/g, liver [4, 5]: 1.998 ± 0.117 % ID/g
Biodistribution % ID/g, small intest. [4, 5]: 0.690 ± 0.064 % ID/g
Biodistribution % ID/g, spleen [4, 5]: 0.925 ± 0.126 % ID/g
organ uptake between groups, except lungs, in words ([4]; mouse): not significantly different
